From the DeepSol protein solubility set

Experiment: soluble on expression in E. coli; label from the status in PepcDB or PDB records

Row | Sequence | soluble on expression in E. coli
1 | MKFEDLLATNKQVQFAHAATQHYKSVKTPDFLEKDPHHKKFHNADGLNQQGSSTPSTATDANAASTASTHTNTTTFKRHIVAVDDISKMNYEMIKNSPGNVITNANQDEIDISTLKTRLYKDNLYAMNDNFLQAVNDQIVTLNAAEQDQETEDPDLSDDEKIDILTKIQENLLEEYQKLSQKERKWFILKELLLDANVELDLFSNRGRKASHPIAFGAVAIPTNVNANSLAFNRTKRRKINKNGLLENIL | soluble
2 | MKFGIVARRDKEEALKLAYRVYDFLKVHGYEVVVDKETYEHFPHFKEGDVIPLDEFDVDFIVAIGGDGTILRIEHMTKKDIPILSINMGTLGFLTEVEPSDTFFALNRLIEGEYYIDERIKVRTYIDGENRVPDALNEVAILTGIPGKIIHMKYYVDGGLADEVRADGLVVSTPTGSTGYAMSAGGPFIDPRLDVILIAPLLPLPKTSVPMVIPGSSRIDIRMLTDREIILAIDGQYYEHLPPNVEITVVKSPRKTKFIRFTREIYPKYTIRIKERHMAGDPLEHHHHHH | not soluble
3 | MKFIFFVLYVLQFLPFALLHKIADLTGLLAYLLVKPRRRIGEINLAKCFSEWSEEKRKTVLKQHFKHMAKLMLEYGLYWYAPAGRLKSLVRYRNKHYLDDALAAGEKVIILYPHFTAFEMAVYALNQDIPLISMYSHQKNKILDEQILKGRNRYHNVFLIGRTEGLRALVKQFRKSSAPFLYLPDQDFGRNDSVFVDFFGIQTATITGLSRIAALANAKVIPAIPVREADNTVTLHFYPAWKSFPGEDAKADAQRMNRFIEDRVREHPEQYFWLHKRFKTRPEGSPDFY | not soluble
4 | MKFLFIVQGEGRGHLTQAITLEEILRRNGHEVVEVLVGKSSSRRLPGFFNRNIHAPVKRFVSPNFLPTPANKRVSLMRSVAYNLVKLPVYINSINYIRQRIEASGADRVINFYELLTGLTYFLFRPSVPQICIGHQYLFLHKSFEFPKADKVSLALLKFFTVLTSLGAKERLALSFRHMKDDPQNHIRVIPPLLRREVTLHEPYSGDYIHGYMVNAGFSENVMKWHRQHPGIPLRFFWDKWEEEPVKRVDNTLSFYQLDDVEFLRQMAGCKAYASTAGFESVCEAMYLGKPILMVPAHIEQDCNAYDAEKSGAGIISSDFNLQQLLEFAKDYHPNRDFVYWVRGAEYTLLNLLESDSSNYQQVLFNEMYLVEEFI | not soluble
5 | MKFLLAVFLLAVCSLGESKKPKAQKVIYVQKVVPPQKQLSEYDLCKEQCRIESETQSNKERVELLKQEIDRAEQLLAEHNKHVDAPEIAPETYMEAGQVPPMRKASRYDHLKMAANKIVESTSELKNAVTGGGDN | not soluble
6 | MKFLQFALLFFIICITTTDASKKTQRVLKKVGKRFSLSEFGVVQRLDYMWRTAETVEAARNHSAELVARLLLSQSSADNLKFQESADILYSLMDNNFEGKICGGDETLNFYQMSDYWKRQRKTYRRNEKENVTWRAYPIEDNAYNKFMVRFNSKSTWGYSATMIYVVHMRLLGEKKYSNYTLTKIEEVGACTEYGGVSLENTNLYELDPERLETRDKLLKHLQELFYTEQKVSEIPFDWIYSSASEKELKIEVCHGTELKKMAKKDFIKWWEWFQMMCRPVKGENEHTLVQITGGVYDRLVFRVTMLVHVGTEDIHPTEEFSFKLQFKYDVHGDKEWLINKFEVMCPTIAVPEADLMKKHALVYREIIGSRLQLMVNNPELWYNFAEAIVALTSPTYEVENCAGKGEEMEKGTDMYQLKHTFWKLNKDTHGRMEGYTLGKKNDISETGEKMWARIRIIWTPGNDKLVYDSRWTFYLEWNSDLQAFTIYKMILQCPTVARIGEIKYYSSLNKPTTNTTSQ | not soluble
7 | MKFPGQRKSKHYFPVKTRDPLLEQLTQQPQPFATYISGIDQTLVDIEAKVEDELLSRYGLPKGNSTLINDEQAHRLYTELKIHGLISDEFAGGTIGNTVHNYSILADDRSVLFGVMSQNIEVGSYAYRYLCNTSSKVDLNYLQPVDGPIGRCFTLISDCGERTFAISKGAMDKLTPEFIDKDVVQGSSALVLTAYLMRASGGDRITDAAMCAIEYAKAADVPVVLTLGTRFLIEEDPLWWQNFIKEHVTILAMNEDEGEALTGSRDPLLASEKALEWCDMVLTTAGPIGLYTAGYTEDSEKRETTHTLLPGAIPEFNRYEFSRPKLKSDCETPIKVYAHISPYMGGPEKIGNTNGAGDGALSALLHDLAANTFHKTNVPGSSKHKRDGLCYSSFSQICKYANRVAYEVLAQHSPRLSRGLPEREDSLEESYWER | soluble
8 | MKFTIVIPIFNRVQYIPETLDSVIRQTYTDLEIICVDDCSSDRSPVLLQDYAKTDLRIKVLTHAKNKGLYLARKTGVLNASGDYILFLDCDDVLDLHAVEVIYNALCKNSVEVLEYGYHSIHANENTVPDSAITVDKLFSSLVYDRYPRAGTVWNKAYKTELLKNAFSKMSDFHAVMGEDFYESVIIAYYAKSYSSIDDVLVIYNDESGISNTRKNLASIQKDLDSVVAILNGFRFFFESYASEHKEAVLNIESYYIRYVYYNLILLKTNKTDRKMAVDLLKDYFSAEAAAPYFNKTKPAVTRDAVMYKIRAVIKRYISKKLREMIKKIIRRYDKKPQQK | not soluble
9 | MKGGAGVPDLPSLDASGVRLAIVASSWHGKICDALLDGARKVAAGCGLDDPTVVRVLGAIEIPVVAQELARNHDAVVALGVVIRGQTPHFDYVCDAVTQGLTRVSLDSSTPIANGVLTTNTEEQALDRAGLPTSAEDKGAQATVAALATALTLRELRAHS | soluble
10 | MKGKKVLITSGGCLEKWDQVRGHTNMAKGTIGRIIAEELLAKGAHVIYLHGYFAEKPSDVHRGLELHPFEGIVDLQDKMKSIISHEKVDAVIMAAAGSDWIVEKICDQDGNVLNMNGKISSDIAPIIHFQKAPKVLKQIKEWDPETVLVGFKLESDLNEEELFERAKNRMKEARANVMIANSPHSLYSRGAVHYVIGQDGKGKLCNGKDETAKEIVKSLEVLCNRVTAF | not soluble
11 | MKGKSILSEGKQIQLATELVRLGARLQVLEASTTLSRERLVKLYKEVKGASPPKGMLPYSEDWFTGWQPNMHSSLFINIYNYITRYTKVRDIDAIIKSYQLYLEHIEANRLQRILSFTRAWTLVRFVESKVLSVTSCVKCTGNFLVHSLDIQSNHVCGLCHVPSRAGKTKRVAQEARAAQEAGAGELCVI | not soluble
12 | MKGNFVVSKEDWSLHRKGYDDQKRHQEKVKEAIKNNLPDLITEESIIMSNGRDVIKIPIRSLDEYKIRYNYEKNKHVGQGNGDSQVGDVVARDGSGEGQGPGKGQGAGDLPGQDYYEAEVSLMEIEEAFFSQLELPNLQRKELDQNVTQHIEFNDIRRTGLMGNIDKKRTMLAAFKRNAMNGKPGFYPIYREDLKFKTWNEVVKPESKAVVLAMMDTSGSMGMWEKYMARSFFFWMTRFLRTKYETVEIAFIAHHTEAKVVTEEEFFTKGESGGTICSSAYRKALELIETKYSPSRYNIYPFHFSDGDNLTSDNARCVKLVQELMKVSNMFGYGEVNQYNRHSTLMSAYRNIKDEKFRYYILKQKSDVFHAMRTFFRKEESKQLV | not soluble
13 | MKGVRSMMGNLVITIGRECGSAGRLIGQKLAADLGVKCYDKELLTLAAKNSGLCEELFKTHDEKPTSSFLYSLVMDTYSLGYNTSAYMDMPINHKIFLAQFDTIKKLAEEESCVIVGRCADYALADYPNTVSVFICGDEEDKIRHLMERHNVDEAKAKDIMIKTDKRRASYYNYYSSKRWGSCKSYDMCISSSAVGYDGAVDIIKEFAKKKQEFLKTKNYK | not soluble
14 | MKGYFETNRIQHIIVDEAQNFHTEDGNWCEKAKGITQGGKACPRMFWIFLDYFQTSHLKESGLPDFELQYPKEELTQVVRNGDKIAEFLQQELGKIRDNPPCSIPRASLNIVHEFKWSQSISGTLKIKYLTSEKMVSYVANKCDVFLSKGYSPQDIAVLFSTDREKKAYEHMFLREMRKKRRASQMNDTSVCHSNMFDRIRRFSGLERSIVFGINPIATEQPISHNLLICLASRAMKYLYILYALTPEGQSSTVAC | not soluble
15 | MKHFDFSLRIWPISLWFVKHSGVKNPMNEVIIREITSEDKEMFLCAMQSSQALHHPWVKAPIIPEEFDEYFSRYQKPNQKSYLLLSDNNLAGVFNISEIVRGYFQNAYLGFYVVAAYAGKGYMSTGLKLILTKVFKDMGLHRLEANIQPENTRSIWLVKKNGFRYEGFSPRYLRVNDVWQGHEHWAMTYEDFIKDNNEVLEKDHIDIVAYNTEWPLLAKAEMVKLRASFPANSVIDIQHVGSTAIPGMASKPIIDIQIAVRSLEEMKIIAVPILQKLDYEYWEDNPDPERMFFVKGMPPYGNGRTHHVHIVEASSRHWKGKTFFRDYLLSHPEAAEKYQQLKIKLAQEHKYDREQYTDAKSEFINQILKLAQN | not soluble
16 | MKHHHHHHQGKITLYEDRGFQGRHYECSSDHTNLQPYLSRCNSARVDSGCWMLYEQPNYSGLQYFLRRGDYADHQQWMGLSDSVRSCRLIPHSGSHRIRLYEREDYRGQMIEFTEDCSCLQDRFRFNEIHSLNVLEGSWVLYELSNYRGRQYLLMPGDYRRYQDWGATNARVGSLRRVIDFS | soluble
17 | MKHICLYFQIHQPFRLKRYRFFDIGNDHYYYDDFRNEEIMRRITQKCYLPANLLLKEIIAEHPEFRVAFSISGTALEQLESYSPEALDTFRDLAETGCVEFLAETYAHSLSSLYDPEEFYNQTMIHSRRMEELFGVKPRVLRNTELIFSDNIATQVAEMGFQGMLTEGAKHILGWKSPNYLYKAGSAPELSLLLRNPRLSDAISAMFTRYDWNEYPLTADKMIRWIEETPEEEQIFNLFMNYEVLGSLHPQESGIFDFFRALPSLAKKSEGVKFATPSELIESSSPVAKFSSIYPISWVGEEKDTGTWLGNVLQQGACDKLEQWGERVRMIDDQRMLQDWLYLQSADHFYYMKTRGGDAGNFSPYETPYDAFNNYMNVLSDFLLRVEARYPSTIENEELKALLTTIRNQDKQIKKLEETIKRQKTKTT | not soluble
18 | MKHIIILGDGMADWPVKSLGDKTLLQYAKTPYMDKLARMGRNGRLITVAEGFHPGSEVANMSVLGYNLPKVYEGRGPLEAASIGVDLKPGEMAMRCNLICVEGEILKNHSSGHISTEEADVLIQYLQEKLGNDRVRFHTGVQYRHLLVIKGGNKELDCTPPHDVPLKPFRPLMVKPLVPEAQETADLINDLILKSQELLKNHPLNLKRMSEGKDPANSIWPWSPGYRPQMPAFSETFPQVKKGAVISAVDLINGIGYYAGLRRIAVEGATGLYNTNYENKVAAALEALKTDDFVYLHIEASDEAGHEGDIDLKLLTIENLDKRAVGPIYEAVKDWDEPVAIAVLPDHPTPCELRTHTSDPIPFLIWYPGIEPDEVQTYDEISACDGSYGVLKEDEFIKEFMNQKNIQ | not soluble
19 | MKHTIGILGGMGPAATADMLEKFVELRHASCDQQHIPLIVSSIPDIPDRTACLLSGGPSPYRYLERYLHMLEDAGAECIVIPCNTAHYWFDDLQNVAKARMISILDATLGDIPPSARHVGLLATNATLATGLYQKKALARGLTLIQPEDAGQALVMQAIYTLKRGDKTAAQALLLPQIDSLIARGAQAIIMGCTEIPLIVAGHERAIACPMIDSTASLVRAAIRWYESWPDTRASLTGEQRLTA | not soluble
20 | MKHVKKEKAEKLEKERQRHIGKPLLGGPFSLTTHTGERKTDKDYLGQWLLIYFGFTHCPDVCPEELEKMIQVVDEIDSITTLPDLTPLFISIDPERDTKEAIANYVKEFSPKLVGLTGTREEVDQVARAYRVYYSPGPKDEDEDYIVDHTIIMYLIGPDGEFLDYFGQNKRKGEIAASIATHMRPYRKKS | soluble
